The text below walks through data of patent US20210395310A1, “Cyclic Peptide” (The University of Tokyo, priority 2018, published 2021).

One experiment deals with T1, MET (Homo sapiens, UniProt P08581).
T1 construct: endogenous in cells; host or cells: EHMES-1 cells
Put plainly: MET activation assay using cells: MET activation by HGF in EHMES-1 cells. It counts as cell-based. As for the experimental part: In EHMES-1 cells, HGF activated MET at EC50=0.07 nM. The arrow in the graph indicates 0.22 nM HGF used for peptide assessment. […] The EC50 value was determined by using dose-response (variable gradient, 4 parameters) curve fitting of Prism 6.0d and plotting the logarithm of MET activation against an HGF concentration. Data thus obtained are expressed as mean±s.d. of three independent measurement results.
(§1) EHMES-1 Cells were stimulated for 10 minutes while using a medium with 20 ng/ml ([…]) of an hHGF protein in the presence or absence of a cyclic peptide and washed with phosphate-buffered physiological saline (PBS). Then, 4% paraformaldehyde (PFA) was added in PBS and the resulting mixture was incubated for 30 minutes, followed by further washing three times with PBS. […] By using a chemiluminescence method with ImmunoStar (registered trademark) LD reagent (product of Wako Pure Chemicals, Japan), chemiluminescence intensity was measured by ARVO MX (product of Perkin Elmer). Relative MET phosphorylation was calculated as the following: (chemiluminescence unit of sample—chemiluminescence unit of mock control)/(chemiluminescence unit of […]—chemiluminescence unit of mock control).

Experiment [1] deals with T2, HGF (Homo sapiens, UniProt P14210).
T2 construct: the full-length human HGF cDNA was cloned into pEHX1.1 plasmid; made in house; host or cells: Chinese hamster ovary (CHO) cells
Kind of experiment: Binding of cyclic peptides to immobilized HGF by SPR (Biacore T200). The note with it: immobilized biotinylated HGF, single cycle kinetics; for kon: read-out: Ka (association rate); for koff: read-out: Kd (dissociation rate). The protocol:
(§2) Binding of the cyclic peptides to immobilized HGF was measured using surface plasmon resonance (SPR) with Biacore T200 (product of GE Healthcare). Specifically, 2000 resonance units (RU) of biotinylated HGF was immobilized onto a CAP sensor chip by using a biotin capture kit (product of GE Healthcare).
(§3) Binding of the cyclic peptides was tested by injecting varying concentrations of the cyclic peptides into an HBS EP+buffer (10 mM HEPES (pH 7.4), 150 mM NaCl, 3 mM EDTA, and 0.05% (v/v) Surfactant P20) containing 0.1% DMSO at a flow rate of 30 μl/min. Binding of the cyclic peptides to HGF was analyzed by single cycle kinetics analysis.
(In SPR one partner is held on a chip, and binding of the other changes the refractive index at the surface.)

In a further experiment the test system is PC-9 cells. Put plainly: Gefitinib resistance test. Details: growth of lung cancer cells: dose or concentration left out as unconfirmed. It counts as cell-based, human. As for the experimental part: The resistance to gefitinib, an anticancer agent, was tested by seeding human lung cancer cells, PC-9 cells, on a 24-well plate and cultured for 24 hours on a RPMI medium containing 10% fetal bovine serum. The number of living cells was counted after non-addition or addition of gefitinib ([…]), HGF (20 ng/mL), or HiP8-PEG11 (1-1000 nM) and culturing for 72 hours.

In experiment [2] the target is T2, HGF. Put plainly: MET activation test: inhibition of HGF-induced MET activation in EHMES-1 cells. It counts as cell-based. The note with it: at a concentration of 100 nM or more. As for the experimental part: as §1, with “PBS. The cells were […] for 30 minutes with 5% goat serum and 0.02% Triton X-100 in PBS and then, incubated at 4° C. for 12 hours in Phospho-Met (Tyr1234/1235) XP rabbit mAb (D26, product of Cell Signaling Technology, Danvers, Commonwealth of Massachusetts), a monoclonal antibody. As the monoclonal antibody, used was that diluted at 1:1000 in a 1% goat serum PBS suspension. The cells were washed three times with PBS and incubated for 1 hour in a liquid obtained by diluting an HRP-conjugated anti-rabbit antibody and a 1% goat serum PBS suspension at 1:1000.” for “PBS.”, “control). […]” for “control).”
Target sequence in this assay (P14210 32-489 isoform P14210-3): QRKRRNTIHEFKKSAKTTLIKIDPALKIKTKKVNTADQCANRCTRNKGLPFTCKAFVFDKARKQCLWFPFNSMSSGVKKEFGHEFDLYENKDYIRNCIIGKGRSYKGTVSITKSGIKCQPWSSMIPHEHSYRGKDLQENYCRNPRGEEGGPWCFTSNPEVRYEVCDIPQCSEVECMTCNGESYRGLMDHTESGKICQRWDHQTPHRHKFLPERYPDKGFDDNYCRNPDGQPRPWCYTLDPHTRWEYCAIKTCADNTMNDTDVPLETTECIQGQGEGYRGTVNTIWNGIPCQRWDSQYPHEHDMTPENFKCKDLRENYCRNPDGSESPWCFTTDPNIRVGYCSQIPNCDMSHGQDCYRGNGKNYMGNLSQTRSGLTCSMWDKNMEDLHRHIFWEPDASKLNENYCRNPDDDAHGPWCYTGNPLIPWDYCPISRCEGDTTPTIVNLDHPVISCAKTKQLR
Target sequence in this assay (P14210 495-728): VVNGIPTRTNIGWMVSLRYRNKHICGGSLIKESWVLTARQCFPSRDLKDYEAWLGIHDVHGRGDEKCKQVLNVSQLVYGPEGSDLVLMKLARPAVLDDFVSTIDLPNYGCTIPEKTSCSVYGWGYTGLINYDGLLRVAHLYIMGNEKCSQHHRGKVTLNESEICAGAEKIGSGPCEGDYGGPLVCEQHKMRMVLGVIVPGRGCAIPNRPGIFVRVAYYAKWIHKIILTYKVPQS

Experiment [3] deals with human hepatocyte growth factor (HGF), recombinant full-length, active two-chain form (human, UniProt P14210 32-728). Put plainly: cell-based or functional assay.
The target of experiment [4] is T3, biotinylated full-length human HGF (human, UniProt P14210 32-728, biotinylated with a succinimidyl biotin labeling kit (sites not given)).
T3 construct: also called biotinylated HGF; biotinylated hHGF
Kind of experiment: SPR, Biacore T200, biotinylated HGF on CAP chip, peptide injected, single cycle kinetics. The protocol: as §2, §3

For experiment [5], the target named is T4, fluorescein-HGF (human, UniProt P14210 32-728, labelled with a succinimidyl fluorescein labeling kit (sites not given)).
T4 construct: also called fluoresceinated HGF
Kind of experiment: competition, flow cytometry: peptide varied against the binding of 0.44 nM fluorescein-HGF to MET-Fc beads [lower panel]. The protocol:
(§4) Labeling of hHGF with fluorescein was performed using a succinimidyl fluorescein labeling kit (product of Dojindo). On 200 μl (50% v/v) of protein G beads (Spherotech) in Tris-buffered physiological saline (pH 7.5) containing 0.1% BSA and […] of Tween-20, 5 μg of MET-extracellular domain-Fc fusion protein (product of R&D systems) was immobilized. […] The fluorescence intensity of the beads was detected using a flow cytometer (product of FACS Canto II, BD Biosciences).
(§5) For a competitive test of the cyclic peptide, for each of increased concentrations of the cyclic peptide, 0.44 nM fluorescein-HGF and MET-Fc immobilized beads were mixed, the resulting mixture was incubated at 25° C. for 1 hour, and fluorescence intensity of the beads was measured using a flow cytometer.

For experiment [6], the target named is T4, fluorescein-HGF. Kind of experiment: competition, flow cytometry: peptide varied against the binding of 0.44 nM fluorescein-HGF to MET-Fc beads [upper panel]. The protocol: as §4, §5
Experiment [7] deals with T4, fluorescein-HGF. Put plainly: competition, flow cytometry: HiP-8 varied against the binding of 0.44 nM fluorescein-HGF to MET-Fc beads. As for the experimental part:
as §4, §5

Positions of bridges follow the written chain, without caps; N, C: chain ends. Non-standard residues stand in square brackets, D forms with d. Primed or numbered codes have the meaning given here. No end group written: not given here. PEG5′ = not defined here; PEG11″ = PEG11 linker; βAla = NCCC(=O)O

T3 sequence (P14210 other isoform, or with tags, fused parts or gaps limits assumed): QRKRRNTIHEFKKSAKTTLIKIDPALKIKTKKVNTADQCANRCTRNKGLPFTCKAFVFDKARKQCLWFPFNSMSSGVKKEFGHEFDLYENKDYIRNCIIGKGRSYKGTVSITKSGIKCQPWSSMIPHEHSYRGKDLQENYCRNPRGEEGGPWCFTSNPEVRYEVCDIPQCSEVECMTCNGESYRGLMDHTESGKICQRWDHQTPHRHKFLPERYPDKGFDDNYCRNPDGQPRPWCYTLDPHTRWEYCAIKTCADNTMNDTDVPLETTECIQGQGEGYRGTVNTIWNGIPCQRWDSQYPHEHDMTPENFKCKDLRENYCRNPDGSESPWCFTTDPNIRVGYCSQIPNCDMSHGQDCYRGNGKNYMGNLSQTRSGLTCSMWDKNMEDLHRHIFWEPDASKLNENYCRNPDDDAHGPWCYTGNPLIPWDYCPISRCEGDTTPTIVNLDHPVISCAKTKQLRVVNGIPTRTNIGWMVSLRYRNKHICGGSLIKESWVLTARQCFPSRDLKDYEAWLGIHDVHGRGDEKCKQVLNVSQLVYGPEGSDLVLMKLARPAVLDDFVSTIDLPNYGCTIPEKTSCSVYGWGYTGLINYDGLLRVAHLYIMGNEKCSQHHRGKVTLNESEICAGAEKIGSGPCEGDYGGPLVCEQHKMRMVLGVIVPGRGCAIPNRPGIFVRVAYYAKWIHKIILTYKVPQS
T4 sequence (P14210 other isoform, or with tags, fused parts or gaps limits assumed): as above
Sequence of human hepatocyte growth factor (HGF), recombinant full-length, active two-chain form (P14210 other isoform, or with tags, fused parts or gaps limits assumed): as above
T1 sequence (P08581 25-1390): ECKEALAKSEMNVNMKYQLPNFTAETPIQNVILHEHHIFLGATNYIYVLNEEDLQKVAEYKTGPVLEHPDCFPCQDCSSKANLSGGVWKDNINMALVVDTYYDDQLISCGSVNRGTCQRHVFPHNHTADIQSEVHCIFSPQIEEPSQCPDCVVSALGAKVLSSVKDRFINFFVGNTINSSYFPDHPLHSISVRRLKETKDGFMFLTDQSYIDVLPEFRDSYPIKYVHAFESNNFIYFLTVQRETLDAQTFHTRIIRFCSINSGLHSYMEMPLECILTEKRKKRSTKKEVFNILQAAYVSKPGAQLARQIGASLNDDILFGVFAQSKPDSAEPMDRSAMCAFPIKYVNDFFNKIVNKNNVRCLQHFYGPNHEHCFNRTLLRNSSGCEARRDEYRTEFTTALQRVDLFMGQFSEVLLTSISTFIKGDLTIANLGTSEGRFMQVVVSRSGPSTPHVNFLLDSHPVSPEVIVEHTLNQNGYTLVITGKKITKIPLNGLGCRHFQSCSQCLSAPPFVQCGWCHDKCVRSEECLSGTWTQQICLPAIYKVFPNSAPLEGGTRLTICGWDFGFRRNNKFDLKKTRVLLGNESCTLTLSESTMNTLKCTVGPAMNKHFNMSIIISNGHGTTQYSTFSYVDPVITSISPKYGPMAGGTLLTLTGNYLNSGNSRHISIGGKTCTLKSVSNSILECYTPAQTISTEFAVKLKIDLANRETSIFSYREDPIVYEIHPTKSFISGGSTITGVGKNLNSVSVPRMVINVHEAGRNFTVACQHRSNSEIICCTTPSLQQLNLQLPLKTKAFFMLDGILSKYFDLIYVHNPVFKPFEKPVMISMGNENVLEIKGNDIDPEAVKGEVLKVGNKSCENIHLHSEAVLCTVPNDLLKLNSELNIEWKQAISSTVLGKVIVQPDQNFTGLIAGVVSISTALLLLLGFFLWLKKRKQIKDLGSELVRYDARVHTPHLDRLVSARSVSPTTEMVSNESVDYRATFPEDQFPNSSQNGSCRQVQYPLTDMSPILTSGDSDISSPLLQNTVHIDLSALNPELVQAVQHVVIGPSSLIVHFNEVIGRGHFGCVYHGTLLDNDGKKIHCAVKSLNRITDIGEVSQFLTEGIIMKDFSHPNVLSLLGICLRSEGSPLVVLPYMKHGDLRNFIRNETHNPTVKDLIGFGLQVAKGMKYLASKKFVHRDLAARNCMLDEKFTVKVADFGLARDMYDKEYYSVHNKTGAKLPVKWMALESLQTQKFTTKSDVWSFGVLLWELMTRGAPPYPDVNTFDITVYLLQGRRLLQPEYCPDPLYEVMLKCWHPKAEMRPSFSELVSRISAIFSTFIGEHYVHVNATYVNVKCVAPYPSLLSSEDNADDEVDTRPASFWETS

With “fluorescein HGF: hHGF labeled with fluorescein using a succinimidyl fluorescein labeling kit”, the “MET activation activity compared with non-labeled HGF” value with MET is listed as “activity equivalent to that of non-labeled HGF”. On to `CC[C@H](C)[C@@H]1NC(=O)[C@H](CCCNC(=N)N)NC(=O)[C@H](Cc2ccccc2)NC(=O)[C@H](CCCCN)NC(=O)[C@@H](Cc2c[nH]c3ccccc23)NC(=O)CSC[C@@H](C(=O)NCC(N)=O)NC(=O)[C@H](CCCCN)NC(=O)[C@H](Cc2ccc(O)cc2)NC(=O)[C@H](Cc2c[nH]c3ccccc23)NC(=O)[C@H](CCCCN)NC(=O)[C@H](CO)NC1=O` [HiP-12, KFRISKWYK], for which, at HGF [1], the kon was found to be 700000 M⁻¹ s⁻¹ and the koff is 0.0079 s⁻¹. Take `CC[C@H](C)[C@@H]1NC(=O)[C@H](CCCCN)NC(=O)[C@H](Cc2ccccc2)NC(=O)[C@H]([C@@H](C)CC)NC(=O)[C@@H](Cc2c[nH]c3ccccc23)NC(=O)CSC[C@@H](C(=O)NCC(N)=O)NC(=O)[C@H](CCCCN)NC(=O)[C@H](Cc2ccc(O)cc2)NC(=O)[C@H](Cc2c[nH]c3ccccc23)NC(=O)[C@H](CCCCN)NC(=O)[C@H](CO)NC1=O` [HiP-13, IFKISKWYK]: at HGF [1], the kon amounted to 1.9e+06 M⁻¹ s⁻¹ and the koff came to 0.004 s⁻¹. Take `COc1cc2ncnc(Nc3ccc(F)c(Cl)c3)c2cc1OCCCN1CCOCC1` [gefitinib, reference compound]: the “growth of lung cancer cells” value in the experiment with PC-9 cells is recorded as “strongly inhibits growth of lung cancer cells”.

For the molecule “biotinylated HGF: hHGF biotinylated using a succinimidyl biotin labeling kit”, the “MET activation activity compared with non-labeled HGF” value with MET was “activity equivalent to that of non-labeled HGF”. As to “TRKISKWYK ({CH2CO}-[dW]TRKISKWYKC; thioether N-11 (inferred)) [HiP-1, thioether cyclic peptide]”, in the experiment with HGF [2], the MET inhibitory activity result was “had MET inhibitory activity”.

Regarding “KHKISKWKK ({CH2CO}-[dW]KHKISKWKKC; thioether N-11 (inferred)) [HiP-6, thioether cyclic peptide]”, the MET inhibitory activity entry in the experiment with HGF [2] is given as “had MET inhibitory activity”.

In the case of {CH2CO}-[dW]TRKISKWYKC (thioether N-11 (inferred)) [cyclic peptide HiP-1], in [3], the “MET inhibitory activity (MET activation inhibition test, EHMES-1 cells)” value was at least 100 nM.

B1: cyclic peptide HiP-9 (peptide)
peptide: Ac-[dW]CKVSKWSKC
modifications: thioether (positions not given here); also: thioether to Cys2 or Cys10, not given here
Regarding B1, in experiment [3], the “MET inhibitory activity (MET activation inhibition test, EHMES-1 cells)” value is at least 100 nM.

Consider {CH2CO}-[dW]NKKVSKWYKRGC (thioether N-13 (inferred)) [cyclic peptide HiP-16], for which, in experiment [3], the “MET inhibitory activity (MET activation inhibition test, EHMES-1 cells)” value was at least 100 nM. Regarding {CH2CO}-[dW]QYKVSKVVYKC (thioether N-12 (inferred)) [cyclic peptide HiP-14], the “MET inhibitory activity (MET activation inhibition test, EHMES-1 cells)” value in [3] was at least 100 nM.

B2: cyclic peptide HiP-12 (peptide)
peptide: {CH2CO}-[dW]KFRISKWYKC
modifications: thioether N-11 (inferred)
notes: C-terminal tail after Cys not known (drawing)
Consider B2, for which, in [3], the “MET inhibitory activity (MET activation inhibition test, EHMES-1 cells)” value is at least 100 nM. Further, the Kd (in general, the equilibrium constant for the complex coming apart) in [4] worked out at 12 nM.

For {CH2CO}-[dW]KHKISKWKKC (thioether N-11 (inferred)) [cyclic peptide HiP-6], in experiment [3], the “MET inhibitory activity (MET activation inhibition test, EHMES-1 cells)” value was at least 100 nM. Regarding {CH2CO}-[dW]PLSKWWYSKRC[βAla][PEG11″] (thioether N-12 (inferred), also called HiP-8 modified peptide) [HiP-8-PEG11], the “IC50 (read off the curve)” value with fluorescein-HGF [5] is around 1 nM.

B3: HiP-8-PEG5 (peptide)
peptide: {CH2CO}-[dW]PLSKWWYSKRC[PEG5′]
modifications: thioether N-12; also: further groups not given here
notes: HiP-8 with a PEG5 tail; also called HiP-8 modified peptide
With B3, the “IC50 (read off the curve)” value with fluorescein-HGF [6] was around 1 nM.

B4: cyclic peptide HiP-8 (peptide)
peptide: {CH2CO}-[dW]PLSKWWYSKRC
modifications: thioether N-12 (inferred)
notes: a C-terminal tail (X')r or amide after Cys is not known
Take B4: the “MET activation inhibition concentration (IC50), EHMES-1 cells stimulated with hHGF” value in [3] came out at 8 nM. In experiment [4], this molecule displayed a Kd of 0.4 nM. Moreover, the IC50 (commonly the midpoint of a concentration-inhibition curve) in the experiment with fluorescein-HGF [7] was found to be 0.9 nM. Further, in the experiment with fluorescein-HGF [5], the “IC50 (read off the curve)” value was around 1 nM.

B5: cyclic peptide HiP-13 (peptide)
peptide: {CH2CO}-[dW]IFKISKWYKC
modifications: thioether N-11 (inferred)
notes: as for B2
B5: in experiment [3], the “MET inhibitory activity (MET activation inhibition test, EHMES-1 cells)” value was at least 100 nM. The same molecule showed a Kd in [4] of 2.1 nM.

B6: cyclic peptide HiP-10 (peptide)
peptide: Ac-[dW]RYIKLCKISKWSRC
modifications: thioether (positions not given here); also: thioether ring-closing Cys not given here (Cys7 or Cys15)
Turning to B6, the “MET inhibitory activity (MET activation inhibition test, EHMES-1 cells)” value in [3] is at least 100 nM. Same read-out and setting: in the case of {CH2CO}-[dW]NRGINKYWKC (thioether N-11 (inferred)) [cyclic peptide HiP-15] it was at least 100 nM.
